Source: PMC9674701, “Cancer cell survival depends on collagen uptake into tumor-associated stroma” (Nature Communications, 2022)

Target: FITC-labeled bovine type I Collagen (Chondrex 4001) (bovine, UniProt P02453 162-1217; P02465 80-1117, FITC label (FITC-Col labeled at a 1:1 molar ratio); labelled residues not stated | FITC label (FITC-Col labeled at a 1:1 molar ratio); labelled residues not stated)
Test: cell-based or functional assay

Sequence of FITC-labeled bovine type I Collagen (Chondrex 4001) (P02453 162-1217, chain 1 of 2): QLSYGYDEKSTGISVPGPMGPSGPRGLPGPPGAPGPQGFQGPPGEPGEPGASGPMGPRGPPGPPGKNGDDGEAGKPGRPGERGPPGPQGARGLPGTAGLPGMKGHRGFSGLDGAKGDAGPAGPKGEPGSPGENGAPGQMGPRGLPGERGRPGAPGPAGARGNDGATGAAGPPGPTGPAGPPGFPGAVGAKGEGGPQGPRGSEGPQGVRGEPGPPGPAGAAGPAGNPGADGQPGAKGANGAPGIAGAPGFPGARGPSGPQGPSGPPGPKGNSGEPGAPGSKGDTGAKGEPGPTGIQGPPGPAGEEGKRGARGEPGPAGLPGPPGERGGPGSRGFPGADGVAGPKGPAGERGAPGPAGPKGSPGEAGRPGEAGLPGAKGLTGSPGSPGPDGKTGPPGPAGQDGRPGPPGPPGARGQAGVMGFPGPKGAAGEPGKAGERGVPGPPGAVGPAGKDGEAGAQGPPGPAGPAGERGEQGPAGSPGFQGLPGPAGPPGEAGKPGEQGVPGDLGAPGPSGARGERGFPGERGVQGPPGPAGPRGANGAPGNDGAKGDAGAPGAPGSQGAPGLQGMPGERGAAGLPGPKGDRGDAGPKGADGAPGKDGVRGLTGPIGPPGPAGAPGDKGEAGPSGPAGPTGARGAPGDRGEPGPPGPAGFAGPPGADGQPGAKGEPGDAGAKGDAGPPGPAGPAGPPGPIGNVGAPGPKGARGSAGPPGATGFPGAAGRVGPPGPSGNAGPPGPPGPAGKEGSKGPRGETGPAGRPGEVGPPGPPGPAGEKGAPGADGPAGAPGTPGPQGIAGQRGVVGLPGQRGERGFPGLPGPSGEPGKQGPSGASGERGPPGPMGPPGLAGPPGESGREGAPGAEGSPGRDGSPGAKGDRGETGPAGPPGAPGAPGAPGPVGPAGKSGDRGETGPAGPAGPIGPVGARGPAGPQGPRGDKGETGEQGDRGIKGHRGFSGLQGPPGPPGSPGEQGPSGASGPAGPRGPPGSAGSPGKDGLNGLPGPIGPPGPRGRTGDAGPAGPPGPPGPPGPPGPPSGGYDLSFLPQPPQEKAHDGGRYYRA
Sequence of FITC-labeled bovine type I Collagen (Chondrex 4001) (P02465 80-1117, chain 2 of 2): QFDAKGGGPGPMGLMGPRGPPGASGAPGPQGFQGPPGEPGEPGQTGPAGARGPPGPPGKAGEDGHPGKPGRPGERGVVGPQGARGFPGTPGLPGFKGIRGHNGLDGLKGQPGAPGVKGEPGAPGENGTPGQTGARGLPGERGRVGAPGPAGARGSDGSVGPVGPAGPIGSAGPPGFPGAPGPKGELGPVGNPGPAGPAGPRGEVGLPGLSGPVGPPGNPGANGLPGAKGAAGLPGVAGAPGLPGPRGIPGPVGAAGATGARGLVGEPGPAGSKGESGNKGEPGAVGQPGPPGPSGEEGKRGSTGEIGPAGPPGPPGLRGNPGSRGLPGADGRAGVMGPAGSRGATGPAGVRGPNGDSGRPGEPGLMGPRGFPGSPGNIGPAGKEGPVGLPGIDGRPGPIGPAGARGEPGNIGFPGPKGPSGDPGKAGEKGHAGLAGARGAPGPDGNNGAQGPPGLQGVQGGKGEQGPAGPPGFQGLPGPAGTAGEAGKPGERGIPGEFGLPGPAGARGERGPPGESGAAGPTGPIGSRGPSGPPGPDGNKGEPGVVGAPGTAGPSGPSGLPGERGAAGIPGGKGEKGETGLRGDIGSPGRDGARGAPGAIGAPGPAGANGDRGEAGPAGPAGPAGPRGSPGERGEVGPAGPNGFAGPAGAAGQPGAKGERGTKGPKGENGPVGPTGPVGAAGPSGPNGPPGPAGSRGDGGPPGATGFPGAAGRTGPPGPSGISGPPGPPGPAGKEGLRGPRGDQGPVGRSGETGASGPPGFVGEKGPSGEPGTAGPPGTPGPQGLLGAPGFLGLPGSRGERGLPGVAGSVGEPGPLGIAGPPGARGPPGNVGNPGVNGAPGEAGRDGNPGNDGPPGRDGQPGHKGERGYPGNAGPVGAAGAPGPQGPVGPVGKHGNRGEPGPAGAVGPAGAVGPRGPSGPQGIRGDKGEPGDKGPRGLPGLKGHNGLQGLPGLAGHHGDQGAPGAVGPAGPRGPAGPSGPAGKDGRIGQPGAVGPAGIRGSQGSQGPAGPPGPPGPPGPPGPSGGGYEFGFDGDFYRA

FITC-col internalization assay, flow cytometry of FITC-col trapped inside cells (Fig. 4e): 5 fold
soluble FITC released into the culture supernatant from a FITC-Col gel, 48 h (Fig. 4d): ~3 fold
B1: TEM8 on TEM8 overexpressing CHO cells (CHO-TEM8), wild type (receptor)
chain: not shown
